Measurements: patent US20230210962A1, “CONDITIONING REGIMEN FOR TRANSPLANT” (Hansa Biopharma AB, priority 2020, published 2023)

Key:
[1] = target: Rabbit anti-thymocyte globulin (rATG) (rabbit); test: cell-based or functional assay; conditions: scale: of 11 subjects with intact rATG remaining
[2] = system: anti-MHC-I H-2K^b mAb (mouse IgG2b) mediated killing of donor BMC; test: In vivo EndoS mediated monoclonal DSA inhibition assay (NOD recipients); parameters: species or system NOD mice
Method: (§1) FIG. 1. EndoS inhibits monoclonal DSA mediated killing of donor bone marrow cells. Naive NOD (panel A-B) or B6.H-2^g7 (panel C-D) were given 30 µg EndoS and/or anti-H-2K^b mAb (10 µg or 100 µg) intravenously four hours prior to the infusion of a mixture of CFSE labeled NOD/CTV labeled B6 bone marrow cells (BMC; panel A-B) or CFSE labeled B6.H-2^g7/CTV labeled NOD.H-2^b BMC (panel C-D). Shown are experiment protocols for NOD (panel A) and B6.H-2^g7 (panel C). Shown are the ratios of dye labeled B6 to NOD cells (panel B) or NOD.H-2^b to B6.H-2^g7 cells (panel D) in the blood (left panels) collected one to three hours after bone marrow transplant (BMT), in host spleens (middle panels) and bone marrow (BM, right panels) collected at four hours after BMT. Mean±SEM are shown. Data were pooled from five (panel B) and four (panel D) independent experiments. Mann-Whitney U test (middle and right panels) was used for the comparisons shown; *p<0.05 and **p<0.01.
NOD or B6.H-2^g7 mice were i.v. injected with vehicle, anti-MHC-I H-2K^b (10 µg) alone, or a mixture of EndoS (30 µg) and anti-MHC-I H-2K^b (10 µg or 100 µg) as a pretreatment. EndoS and anti-H-2K^b were mixed right before injection. Four hours after this pretreatment, five million cells of a 1:1 mixture of carboxyfluorescein succinimidyl ester (CFSE) labeled NOD and cell trace violet dye (CTV) labeled B6 bone marrow cells (BMC) were i.v. injected into the pre-treated NOD mice. Similarly, a 1:1 mixture of CFSE labeled B6.H-2^g7 and CTV labeled NOD.H-2^b BMC were injected into pre-treated B6.H-2^g7 mice. Blood was collected at 1, 2, and 3 hours post cell administration and analyzed by flow cytometry. Splenocytes and BMC from one hind limb were collected from each mouse and analyzed at four hours post BMC injection.
To evaluate the effect of EndoS on inhibiting the antibody-mediated killing of donor BMC, DSA passive transfer experiments were performed. Of all DSA, anti-donor MHC or HLA antibodies are of most importance in the clinic. Therefore, naïve NOD mice were injected with mouse IgG2b antibodies targeting MHC-I K^b expressing cells, treated with EndoS or left untreated, and thereafter subjected to bone marrow transfer from B6 mice.

[3] = system: anti-MHC-I H-2K^b mAb (mouse IgG2b) mediated killing of donor BMC; test: In vivo EndoS mediated monoclonal DSA inhibition assay (complement sufficient B6.H-2^g7 recipients); parameters: species or system B6.H-2^g7 mice; conditions: compared to NOD hosts
Method: as §1
NOD or B6.H-2^g7 mice were i.v. injected with vehicle, anti-MHC-I H-2K^b (10 µg) alone, or a mixture of EndoS (30 µg) and anti-MHC-I H-2K^b (10 µg or 100 µg) as a pretreatment. […] Blood was collected at 1, 2, and 3 hours post cell administration and analyzed by flow cytometry. Splenocytes and BMC from one hind limb were collected from each mouse and analyzed at four hours post BMC injection. […]

[4] = system: B6.CD45.2 donor bone marrow cells; test: Short-term survival of donor BMC in sensitized recipients; format: in vivo, NOD mice; conditions: T cell-depleted NOD, enzyme 4 h prior to BMT, four hours post-BMT
Description: FIG. 2. EndoS-imlifidase reduces DSA-mediated killing of donor BMC in sensitized recipients. (A-C) Naive NOD mice were immunized with FVB splenocytes four weeks prior to the administration of EndoS-imlifidase. Sera were harvested prior to immunization, prior to and four hours after enzyme treatment. Representative histograms on the left are for DSA-IgG Fc (panel A), DSA-IgG1 Fc (panel B), DSA-IgG3 Fc (panel C) and DSA-IgG3 heavy chain (panel D) with sera at a 1:25 dilution. Mean fluorescence intensity (MFI) of DSA in the titrated sera is shown on the right. Mean±SEM are shown. Ratio paired t test was used to compare MFI of DSA before and after enzyme treatment at each serum dilution with *p<0.05, **p<0.01. (D) Schematic of the experiment shown in E-F. Naive NOD mice were immunized with B6.CD45.1 splenocytes four weeks prior to injection of T cell depleting mAbs. […] Splenocytes and bone marrow cells were analysed for the expression of MHC-I H-2K^b and CD45.2. […]
To determine the short-term survival of donor BMC in sensitized recipients, NOD mice that had been sensitized to B6.CD45.1 splenocytes were T cell-depleted (anti-CD4, 0.25 mg, anti-CD8, 0.25 mg, anti-CD90 0.3 mg, i.p.) two days prior to BMT and i.v. injected with EndoS and imlifidase 4 hours prior to BMT (80×10^6 B6.CD45.2 BMC via i.v. injection). Splenocytes and BMC were analyzed at 4 hours post BMC injection.

[5] = Imlifidase serum concentration in healthy subjects; format: in vivo, human; conditions: 0.25 mg/kg imlifidase, 96 hours
Method: (§2) FIG. 5. Mean imlifidase concentration vs. nominal time from dosing (N=15). Data BLQ are included in mean calculation as BLQ/2. SD indicated with bars. FIG. 6. In vitro cleavage of rATG by imlifidase over time. Columns indicate number of subjects with visible intact rATG on Western blot post-imlifidase (N=11).
(§3) The cleavage pattern of rATG was investigated with sera from healthy subjects (n=11) treated with 0.25 mg/kg imlifidase (EudraCT number: 2019-002770-31). Serum samples were incubated with a fixed, clinically relevant, concentration of 50 µg/mL rATG (commonly observed after a dose of 1.5 mg/kg), for 2 hours at 37° C. Serum samples were collected pre-imlifidase through 14 days post-imlifidase and were analyzed using SDS-PAGE and Western blot, developed with a goat anti-rabbit IgG, F(ab′)2 specific antibody to evaluate the cleavage of rATG. Imlifidase concentration was analyzed using a validated electroluminescence immunoassay based on MSD technology.

[6] = system: rATG; test: In vitro cleavage of rATG by imlifidase in post-dose sera (SDS-PAGE and Western blot); format: biochemical, rabbit; conditions: sera 96 hours post-imlifidase, 50 µg/mL rATG, 2 hours at 37° C
Method: as §2, §3

[7] = system: plasma IgG-pool; conditions: humans, cited from earlier work

Imlifidase (IdeS, Immunoglobulin G-degrading enzyme of S. pyogenes)
cleavage of rATG in sera of imlifidase-treated subjects (SDS-PAGE and Western blot), 96 hours post-imlifidase [1]: 8

B1: EndoS: Endoglycosidase of S. pyogenes, IgG endoglycosidase; mature sequence SEQ ID NO: 90 (protein)
chain: EEKTVQVQKGLPSIDSLHYLSENSKKEFKEELSKAGQESQKVKEILAKAQQADKQAQELAKMKIPEKIPMKPLHGPLYGGYFRTWHDKTSDPTEKDKVNSMGELPKEVDLAFIFHDWTKDYSLFWKELATKHVPKLNKQGTRVIRTIPWRFLAGGDNSGIAEDTSKYPNTPEGNKALAKAIVDEYVYKYNLDGLDVDVEHDSIPKVDKKEDTAGVERSIQVFEEIGKLIGPKGVDKSRLFIMDSTYMADKNPLIERGAPYINLLLVQVYGSQGEKGGWEPVSNRPEKTMEERWQGYSKYIRPEQYMIGFSFYEENAQEGNLWYDINSRKDEDKANGINTDITGTRAERYARWQPKTGGVKGGIFSYAIDRDGVAHQPKKYAKQKEFKDATDNIFHSDYSVSKALKTVMLKDKSYDLIDEKDFPDKALREAVMAQVGTRKGDLERFNGTLRLDNPAIQSLEGLNKFKKLAQLDLIGLSRITKLDRSVLPANMKPGKDTLETVLETYKKDNKEEPATIPPVSLKVSGLTGLKELDLSGFDRETLAGLDAATLTSLEKVDISGNKLDLAPGTENRQIFDTMLSTISNHVGSNEQTVKFDKQKPTGHYPDTYGKTSLRLPVANEKVDLQSQLLFGTVTNQGTLINSEADYKAYQNHKIAGRSFVDSNYHYNNFKVSYENYTVKVTDSTLGTTTDKTLATDKEETYKVDFFSPADKTKAVHTAKVIVGDEKTMMVNLAEGATVIGGSADPVNARKVFDGQLGSETDNISLGWDSKQSIIFKLKEDGLIKHWRFFNDSARNPETTNKPIQEASLQIFNIKDYNLDNLLENPNKFDDEKYWITVDTYSAQGERATAFSNTLNNITSKYWRVVFDTKGDRYSSPVVPELQILGYPLPNADTIMKTVTTAKELSQQKDKFSQKMLDELKIKEMALETSLNSKIFDVTAINANAGVLKDCIEKRQLLKK
modifications: Streptococcus pyogenes
ratio of B6 to NOD cells in blood ([2]; 30 µg EndoS i.v. with 10 µg anti-K^b mAb vs mAb alone, one hour post-BMT, stable at two and three hours): significantly increased
ratio of B6 to NOD cells in BM and spleen ([2]; EndoS with 10 µg anti-K^b mAb vs mAb only, four hours post-BMT): significant increase
ratio of B6 to NOD cells in blood ([2]; EndoS with 100 µg anti-K^b mAb vs mAb alone, one and two hours post-BMT): increased ratio
ratio of B6 to NOD cells in blood ([2]; EndoS with 100 µg anti-K^b mAb, three hours post-BMT): did not last
ratios of donor to recipient cells [3]: improved

B2: imlifidase: IdeS (Immunoglobulin G-degrading enzyme of S.pyogenes), IgG cysteine protease; mature sequence SEQ ID NO: 2 (protein)
chain: DSFSANQEIRYSEVTPYHVTSVWTKGVTPPANFTQGEDVFHAPYVANQGWYDITKTFNGKDDLLCGAATAGNMLHWWFDQNKDQIKRYLEEHPEKQKINFNGEQMFDVKEAIDTKNHQLDSKLFEYFKEKAFPYLSTKHLGVFPDHVIDMFINGYRLSLTNHGPTPVKEGSKDPRGGIFDAVFTRGDQSKLLTSRHDFKEKNLKEISDLIKKELTEGKALGLSHTYANVRINHVINLWGADFDSNGNLKAIYVTDSDSNASIGMKKYFVGVNSAGKVAISAKEIKEDNIGAQVLGLFTLSTGQDSWNQTN
modifications: Streptococcus pyogenes
B6.CD45.2 donor cells in BM [4]: 0.15%
B6.CD45.2 donor cells in spleen [4]: 0.46%
imlifidase serum concentration, individual variation [5]: <0.1 to 1.8 µg/mL
imlifidase serum concentration, mean [5]: 0.5 µg/mL
subjects in which complete cleavage of rATG was avoided [6]: 8 of 11
cleavage of the entire plasma IgG-pool ([7]; after dosing with IdeS): within minutes
time IgG levels in blood remain low ([7]; until newly synthesized IgG appeared): more than a week
